{"source": "paper PMC5689134", "about": "“Detailed Analysis of Insulin Absorption Variability and the Tissue Response to Continuous Subcutaneous Insulin Infusion Catheter Implantation in Swine” (Diabetes Technology & Therapeutics, 2017)", "test": "Insulin lispro absorption PK after 5-U bolus through CSII catheters in swine", "type": "in vivo", "conditions": "for tmax (time-to-peak) / AUC60 (0-60 min after bolus) / Cmax (maximal plasma insulin level) / AUC (0-160 min after bolus, baseline subtracted): mean ± SD; for AUC60 (0-60 min after bolus) / Cmax (maximal plasma insulin level) / AUC (0-160 min after bolus, baseline subtracted): plasma ELISA", "from_the_text": "We performed an observational study in six swine to evaluate the PK of insulin lispro (U-100 Humalog; Eli Lilly) infused through CSII catheters implanted for 5 days. Six commercial CSII catheters (CCs) and six investigational CSII catheters (ICs) were inserted into the subcutaneous tissue of each swine. Lispro insulin and saline were infused through the CCs and ICs for 5 days using battery powered insulin pumps and the same basal/bolus pattern of delivery. Additional CCs and ICs were filled with saline and capped (Supplementary Table S1; Supplementary Data are available online at www.liebertpub.com/dia). Insulin PK (Cmax, tmax, AUC, AUC60) following a 5-U bolus were evaluated on days 1, 3, and 5. The tissue surrounding the 72 CSII was excised and pathologically analyzed to elucidate the relationship between the PK of insulin absorption and the inflammatory tissue response to trauma and the CSII cannula.\nThe study was performed in six nondiabetic ambulatory female swine (68.5 ± 3.6 kg). The protocol was approved by the Institutional Animal Care & Use Committee of Thomas Jefferson University. […] The CVC ports were flushed every 1–3 days using a Huber needle and low-dose heparin solution. One week later, each swine was given general anesthesia and six CCs (Inset™; UnoMedical, Denmark) and six ICs were inserted into the subcutaneous tissue of the abdomen using an aseptic technique according to the manufacturer's instructions. In total, 72 CSII were implanted in six swine.\nTwo CCs and two ICs were connected to insulin pumps (OneTouch Ping; Animas Corporation, West Chester, PA) containing rapid acting lispro insulin. Two CCs and two ICs were connected to insulin pumps containing saline solution. […] CSII were secured with Tegaderm™ adhesive bandages and the eight insulin pumps were secured within the pockets of a custom vest (Lomir Biomedical, Inc., Supplementary Fig. S2). Insulin lispro was continuously infused through the four CSII catheters at a low basal rate (0.2 U/h/catheter = 0.8 U/h). Insulin and saline were infused using the same basal/bolus pattern throughout the 5-day study.\nPK studies were performed on days 1, 3, and 5 after CSII insertion. On day 1, animals recovered from general anesthesia for ∼2 h before starting the PK study. Blood was sampled from a CVC every 10 min for ∼2 h, followed by every 15 min for 1 h before administering the second bolus and repeating the sampling schedule. When blood sample acquisition from a CVC was not possible, samples were obtained from the alternate CVC or occasionally omitted. The swine were able to stand up, lie down, and consume food (apples, biscuits) and water during the PK study. The concentration of blood glucose (BG) was measured in duplicate using the YSI analyzer. Samples were centrifuged to plasma and stored at −80°C for subsequent insulin assay. A stable baseline was established for ∼30 min (three to five BG values).\nWe then infused a 5-U bolus of insulin into a CC or an IC in a randomized order. The concentration of BG was maintained between 100 and 160 mg/dL by adjusting an intravenous infusion of 20% dextrose every 5–10 min for 3 h. A second baseline was then established for ∼30 min to ensure that BG levels have returned to baseline values after the morning insulin bolus, followed by a 5-U bolus of insulin infused into the alternate CSII catheter. The afternoon PK study ended ∼3 h later. Thus, two PK studies were performed on days 1, 3, and 5 in the same swine using the same CC and IC each day.\nThe concentration of lispro insulin was measured in plasma samples by PreClinOmics, Inc. (Indianapolis, IN) using a porcine insulin ELISA and an Iso-insulin ELISA (Mercodia AB, Uppsala, Sweden). The lispro insulin concentration was calculated by subtracting the porcine insulin from the total insulin concentration. […]", "key": {"[1]": {"conditions": "day 5, 5-U bolus via CC, Mean±SD of swine 2-6 (Table S4), SD"}, "[2]": {"conditions": "day 5, 5-U bolus via CC, individual animal: swine 2"}, "[3]": {"conditions": "day 5, 5-U bolus via CC, individual animal: swine 3"}, "[4]": {"conditions": "day 5, 5-U bolus via CC, individual animal: swine 4"}, "[5]": {"conditions": "day 5, 5-U bolus via CC, individual animal: swine 5"}, "[6]": {"conditions": "day 5, 5-U bolus via CC, individual animal: swine 6"}, "[7]": {"conditions": "day 5, 5-U bolus via IC (pump occlusion alarm during bolus), individual animal: swine 3"}, "[8]": {"conditions": "day 5, 5-U bolus via IC (pump occlusion alarm during bolus), individual animal: swine 4"}, "[9]": {"conditions": "day 5, 5-U bolus via IC (pump occlusion alarm during bolus), individual animal: swine 5"}, "[10]": {"conditions": "day 5, 5-U bolus via IC, Mean±SD of swine 1-6 (Table S4), SD"}, "[11]": {"conditions": "day 5, 5-U bolus via IC, individual animal: swine 1"}, "[12]": {"conditions": "day 5, 5-U bolus via IC, individual animal: swine 2"}, "[13]": {"conditions": "day 5, 5-U bolus via IC, individual animal: swine 6"}, "[14]": {"conditions": "swine, 5-U s.c. bolus via CC, day 1, n = 5, SD"}, "[15]": {"conditions": "swine, 5-U s.c. bolus via CC, day 3, n = 5, SD"}, "[16]": {"conditions": "swine, 5-U s.c. bolus via CC, day 5, n = 5, SD"}, "[17]": {"conditions": "swine, 5-U s.c. bolus via IC, day 1, n = 6, SD"}, "[18]": {"conditions": "swine, 5-U s.c. bolus via IC, day 3, n = 6, SD"}, "[19]": {"conditions": "swine, 5-U s.c. bolus via IC, day 5, n = 6, SD"}}, "data": [{"substance": "insulin lispro", "values": [{"measurement": "Cmax", "setting": "[1]", "result": "114.66±30", "unit": "mUL"}, {"measurement": "tmax", "setting": "[1]", "result": "12.00 ± 4", "unit": "min"}, {"measurement": "Cmax", "setting": "[2]", "result": 113.43, "unit": "mUL"}, {"measurement": "tmax", "setting": "[2]", "result": 10, "unit": "min"}, {"measurement": "AUC", "setting": "[3]", "result": 119.45, "unit": "mULh"}, {"measurement": "Cmax", "setting": "[3]", "result": 116.16, "unit": "mUL"}, {"measurement": "tmax", "setting": "[3]", "result": 20, "unit": "min"}, {"measurement": "AUC", "setting": "[4]", "result": 57.25, "unit": "mULh"}, {"measurement": "Cmax", "setting": "[4]", "result": 156.62, "unit": "mUL"}, {"measurement": "tmax", "setting": "[4]", "result": 10, "unit": "min"}, {"measurement": "AUC", "setting": "[5]", "result": 48.26, "unit": "mULh"}, {"measurement": "Cmax", "setting": "[5]", "result": 115.52, "unit": "mUL"}, {"measurement": "tmax", "setting": "[5]", "result": 10, "unit": "min"}, {"measurement": "AUC", "setting": "[6]", "result": 54.47, "unit": "mULh"}, {"measurement": "Cmax", "setting": "[6]", "result": 71.56, "unit": "mUL"}, {"measurement": "tmax", "setting": "[6]", "result": 10, "unit": "min"}, {"measurement": "AUC", "setting": "[7]", "result": 54.83, "unit": "mULh"}, {"measurement": "Cmax", "setting": "[7]", "result": 85.06, "unit": "mUL"}, {"measurement": "tmax", "setting": "[7]", "result": 30, "unit": "min"}, {"measurement": "AUC", "setting": "[8]", "result": 100.49, "unit": "mULh"}, {"measurement": "Cmax", "setting": "[8]", "result": 269.32, "unit": "mUL"}, {"measurement": "tmax", "setting": "[8]", "result": 20, "unit": "min"}, {"measurement": "AUC", "setting": "[9]", "result": 57.08, "unit": "mULh"}, {"measurement": "Cmax", "setting": "[9]", "result": 131.09, "unit": "mUL"}, {"measurement": "tmax", "setting": "[9]", "result": 10, "unit": "min"}, {"measurement": "AUC", "setting": "[10]", "result": "40.96±38", "unit": "mULh"}, {"measurement": "Cmax", "setting": "[10]", "result": "105.08±88", "unit": "mUL"}, {"measurement": "tmax", "setting": "[10]", "result": "33.33 ± 19", "unit": "min"}, {"measurement": "AUC", "setting": "[11]", "result": 28.30, "unit": "mULh"}, {"measurement": "Cmax", "setting": "[11]", "result": 68.17, "unit": "mUL"}, {"measurement": "tmax", "setting": "[11]", "result": 60, "unit": "min"}, {"measurement": "AUC", "setting": "[12]", "result": 1.77, "unit": "mULh"}, {"measurement": "Cmax", "setting": "[12]", "result": 47.10, "unit": "mUL"}, {"measurement": "tmax", "setting": "[12]", "result": 50, "unit": "min"}, {"measurement": "AUC", "setting": "[13]", "result": 3.27, "unit": "mULh"}, {"measurement": "Cmax", "setting": "[13]", "result": 29.76, "unit": "mUL"}, {"measurement": "tmax", "setting": "[13]", "result": 30, "unit": "min"}, {"measurement": "Insulin absorption, range between animals", "setting": "swine, 5-U bolus via IC, day 3, range over six ICs", "result": "9–132 mU/L*h"}, {"measurement": "tmax (time-to-peak)", "setting": "[14]", "result": "35.0 ± 17.3", "unit": "min"}, {"measurement": "AUC60 (0-60 min after bolus)", "setting": "[14]", "result": "50.9 ± 12.9", "unit": "mU/L·h"}, {"measurement": "Cmax (maximal plasma insulin level)", "setting": "[14]", "result": "90.7 ± 26.8", "unit": "mU/L"}, {"measurement": "tmax (time-to-peak)", "setting": "[15]", "result": "20.0 ± 12.2", "unit": "min"}, {"measurement": "AUC60 (0-60 min after bolus)", "setting": "[15]", "result": "47.0 ± 25.6", "unit": "mU/L·h"}, {"measurement": "AUC (0-160 min after bolus, baseline subtracted)", "setting": "[15]", "result": "63.1 ± 22.8", "unit": "mU/L*h"}, {"measurement": "Cmax (maximal plasma insulin level)", "setting": "[15]", "result": "73.9 ± 41.0", "unit": "mU/L"}, {"measurement": "AUC60 (0-60 min after bolus)", "setting": "[16]", "result": "54.9 ± 20.8", "unit": "mU/L·h"}, {"measurement": "AUC (0-160 min after bolus, baseline subtracted)", "setting": "[16]", "result": "71.1 ± 29.4", "unit": "mU/L*h"}, {"measurement": "Cmax (maximal plasma insulin level)", "setting": "[16]", "result": "114.7 ± 30.1", "unit": "mU/L"}, {"measurement": "tmax (time-to-peak)", "setting": "[17]", "result": "43.3 ± 28.8", "unit": "min"}, {"measurement": "AUC60 (0-60 min after bolus)", "setting": "[17]", "result": "44.3 ± 23.2", "unit": "mU/L·h"}, {"measurement": "Cmax (maximal plasma insulin level)", "setting": "[17]", "result": "120.0 ± 59.3", "unit": "mU/L"}, {"measurement": "tmax (time-to-peak)", "setting": "[18]", "result": "20.0 ± 6.3", "unit": "min"}, {"measurement": "AUC60 (0-60 min after bolus)", "setting": "[18]", "result": "42.7 ± 40.0", "unit": "mU/L·h"}, {"measurement": "AUC (0-160 min after bolus, baseline subtracted)", "setting": "[18]", "result": "63.1 ± 51.8", "unit": "mU/L*h"}, {"measurement": "Cmax (maximal plasma insulin level)", "setting": "[18]", "result": "115.0 ± 86.2", "unit": "mU/L"}, {"measurement": "AUC60 (0-60 min after bolus)", "setting": "[19]", "result": "29.0 ± 31.3", "unit": "mU/L·h"}, {"measurement": "AUC (0-160 min after bolus, baseline subtracted)", "setting": "[19]", "result": "40.1 ± 37.6", "unit": "mU/L*h"}, {"measurement": "Cmax (maximal plasma insulin level)", "setting": "[19]", "result": "105.1 ± 87.7", "unit": "mU/L"}, {"measurement": "AUC (0-160 min after bolus, baseline subtracted)", "setting": "swine, 5-U s.c. bolus via commercial CSII catheter (CC), day 1 of wear-time, n = 5 (AUC of swine 6 not calculable), SD", "result": "82.7 ± 37.6", "unit": "mU/L*h"}, {"measurement": "AUC (0-160 min after bolus, baseline subtracted)", "setting": "swine, 5-U s.c. bolus via investigational CSII catheter (IC), day 1, n = 6, SD", "result": "68.5 ± 36.0", "unit": "mU/L*h"}]}]}
